Results published in patent US20250152742A1, “COMPOSITIONS AND METHODS FOR NEUROLOGICAL DISEASES” (Trames Bio, Inc., priority 2022, published 2025).

Legend:
[1] = system: engineered receptors and wild type nAchRa7 expressed in HEK293T cells; experiment: High throughput electrophysiology (IonFlux HT/Mercury automated patch clamp), EC50; format: cell-based, human
Protocol: To confirm the […] determined by plate reader as well as develop a better understanding of maximum current flow, the engineered receptors were subjected to high throughput electrophysiology system, as described below. For HEK293T studies, cDNAs encoding ion channels were cloned into pcDNA3.1 using standard recombination techniques. HEK293T cells from Clontech (Lenti-XTM 293T Cell Line) were cultured in DMEM supplemented with 10% FBS and 1% Pen/Strep to 40-50% confluence using standard cell culture protocols, transfected with ion channel plasmids at a concentration of 18 μg per 15 cm dish using Fugene 6, and grown for an additional 24 hours. Cells were then assayed on an electrophysiological system (IonFluxHT and/or Mercury, Fluxion Biosciences) in which dose-response relationships may be assessed through a microfluidics-based platform for establishing whole cell configurations. Ensemble plates were primed with extracellular buffer (140 mM NaCl, 5 mM KCl, 2 mM CaCl2), 1 mM MgCl2, 10 mM HEPES, and 10 mM glucose, pH 7.2 with NaOH, mOsm 310), intracellular buffer (145 mM CsCl, 2 mM CaCl2, 2 mM MgCl2, 10 mM HEPES, and 10 mM EGTA, pH 7.2 with CsOH, mOsm 305), as adapted from Lynagh and Lynch, and test compounds (stocks prepared fresh) diluted in extracellular buffer. Cells were then released from the plate with Accutase, centrifuged, resuspended in extracellular buffer, and loaded into Ensemble plates. Cells were then subjected to a standard protocol for priming, trapping, breaking, and establishing whole cell configuration, with cells held at −60 mV throughout the recording. After recording baseline, progressive doses of test compounds were applied using the IonFlux software to assess dose response relationships. Data were then analyzed off-line using custom Python scripts to convert data to .csv format, re-plot traces, and apply QC measurements to reject unstable recordings (i.e. thresholding based on access resistance and/or standard deviation in baseline, as well as artifact rejection). Peak currents were then calculated, and population data were fit using a 4-parameter logistic equation as described by the Hill Equation. Currents were measured on an automated patch clamp system (Fluxion Biosciences) following 1 second addition of drug and the EC50 values calculated are tabulated below in Table 22A and Table 22B below and Table 21A and Table 21B above (in Example 2).

[2] = system: engineered chimeric receptor SEQ ID NO: 33 and its mutants (human α7-nAChR ligand binding domain / human GlyRα1 ion pore domain) in Lenti-X 293T cells; experiment: YFP fluorescence quenching anion reporter plate reader assay (percent quench, EC50); format: cell-based; conditions: for YFP fluorescence quenching using Facinicline, 30 nM fac: ligand Facinicline 30 nM; for YFP fluorescence quenching using Facinicline, 300 nM fac: ligand Facinicline 300 nM; for YFP fluorescence quenching using Facinicline, 30 uM fac: ligand Facinicline 30 uM; for YFP fluorescence quenching using TC-6987, 1 uM tc6987: ligand TC-6987 1 uM; for YFP fluorescence quenching using TC-6987, 10 uM tc6987: ligand TC-6987 10 uM; for YFP fluorescence quenching using TC-6987, 500 uM tc6987: ligand TC-6987 500 uM; for YFP fluorescence quenching using CNL001 (percent quench): receptor named in row; for YFP fluorescence quenching using Varenicline, 3 nM var: ligand Varenicline 3 nM; for YFP fluorescence quenching using Varenicline, 30 nM var: ligand Varenicline 30 nM; for YFP fluorescence quenching using Varenicline, 300 nM var: ligand Varenicline 300 nM; for YFP fluorescence quenching using Varenicline, 500 nM var: ligand Varenicline 500 nM; for YFP fluorescence quenching using Varenicline, 1 uM var: ligand Varenicline 1 uM
Procedure, shortened: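 Percent quench compares mean YFP signal over the final 10 s with the 15 s baseline before ligand, added in iodide-containing extracellular solution (pH 7.2). Cells were LX293T carrying a YFP anion reporter, transiently transfected with the channel construct; plates were preincubated 30 min at 37 °C.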

[3] = 3 nM brd (TC-5619/Bradanicline)
[4] = 30 nM brd (TC-5619/Bradanicline)
[5] = 300 nM brd (TC-5619/Bradanicline)

B1: CODA536: engineered receptor: L131D, S172D in SEQ ID NO: 33 (protein)
chain: MRCSPGGVWLALAASLLHVSLQGEFQRKLYKELVKNYNPLERPVANDSQPLTVYFSLSLLQIMDVDEKNQVLTTNIWLQMSWTDHYLQWNVSEYPGVKTVRFPDGQIWKPDILLYNSADERFDATFHTNVDVNSSGHCQYLPPGIFKSSCPMDLKNFPMDVQTCKLKFGSWDYGGWSLDLQMQEADISGYIPNGEWDLVGIPGKRSERFYECCKEPYPDVTFTVTMRRRMGYYLIQMYIPSLLIVILSWISFWINMDAAPARVGLGITTVLTMTTQSSGSRASLPKVSYVKAIDIWMAVCLLFVFSALLEYAAVNFVSRQHKELLRFRRKRRHHKSPMLNLFQEDEAGEGRFNFSAYGMGPACLQAKDGISVKGANNSNTTNPPPAPSKSPEEMRKLFIQRAKKIDKISRIGFPMAFLIFNMFYWIIYKIVRREDVHNQ
modifications: synthetic sequence of chimeric LGIC
[1]; ligand AZD-0328
  fold increased potency towards AZD-0328 compared to wild type control receptor: at least 10 fold
[1]; ligand RG-3487
  fold increased potency towards RG-3487 compared to wild type receptor: at least 10 fold
[2]; 1 nM brd (TC-5619/Bradanicline)
  YFP fluorescence quenching using TC-5619/Bradanicline (percent quench): −1.24%
[2]; [3]
  YFP fluorescence quenching using TC-5619/Bradanicline (percent quench): 0.25%
[2]; 10 nM brd (TC-5619/Bradanicline)
  YFP fluorescence quenching using TC-5619/Bradanicline (percent quench): −2.57%
[2]; 30 nM TC-6683
  YFP fluorescence quenching using TC-6683 (percent quench): −22.285%
[2]; [4]
  YFP fluorescence quenching using TC-5619/Bradanicline (percent quench): 0.78%
[2]; 50 nM abt (ABT-126)
  YFP fluorescence quenching using ABT-126 (percent quench): −3.19%
[2]; 100 nM CNL002
  YFP fluorescence quenching (percent quench): 71.72%
[2]; 100 nM abt (ABT-126)
  YFP fluorescence quenching using ABT-126 (percent quench): 7.58%
[2]; 100 nM azd0328
  YFP fluorescence quenching using AZD-0328 (percent quench): 51.44%
[2]; 100 nM brd (TC-5619/Bradanicline)
  YFP fluorescence quenching using TC-5619/Bradanicline (percent quench): 4.51%
[2]; 300 nM TC-6683
  YFP fluorescence quenching using TC-6683 (percent quench): −23.926%
[2]; 300 nM abt (ABT-126)
  YFP fluorescence quenching using ABT-126 (percent quench): −1.65%
[2]; 300 nM azd0328
  YFP fluorescence quenching using AZD-0328 (percent quench): 77.12%
[2]; [5]
  YFP fluorescence quenching using TC-5619/Bradanicline (percent quench): 30.97%
[2]; 1 uM CNL002
  YFP fluorescence quenching (percent quench): 77.26%
[2]; 1 uM abt (ABT-126)
  YFP fluorescence quenching using ABT-126 (percent quench): 31.29%
[2]; 1 uM brd (TC-5619/Bradanicline)
  YFP fluorescence quenching using TC-5619/Bradanicline (percent quench): 44.41%
[2]; 3 uM TC-6683
  YFP fluorescence quenching using TC-6683 (percent quench): −20.514%
[2]; 10 uM ach (acetylcholine)
  YFP fluorescence quenching (percent quench): −12.91%
[2]; 30 uM CNL002
  YFP fluorescence quenching (percent quench): 77.5%
[2]; 30 uM TC-6683
  YFP fluorescence quenching using TC-6683 (percent quench): −3.078%
[2]; 30 uM azd0328
  YFP fluorescence quenching using AZD-0328 (percent quench): 79.26%
[2]; 100 uM TC-6683
  YFP fluorescence quenching using TC-6683 (percent quench): 7.37%
[2]; 100 uM ach (acetylcholine)
  YFP fluorescence quenching (percent quench): −20.88%
[2]; 1 mM ach (acetylcholine)
  YFP fluorescence quenching (percent quench): 79.85%
[2]; 3 mM ach (acetylcholine)
  YFP fluorescence quenching (percent quench): 79.98%
[2]
  YFP fluorescence quenching using Facinicline, 30 nM fac: 24.15
  YFP fluorescence quenching using Facinicline, 300 nM fac: 80.17
  YFP fluorescence quenching using Facinicline, 30 uM fac: 79.9
  YFP fluorescence quenching using TC-6987, 1 uM tc6987: −18.24
  YFP fluorescence quenching using TC-6987, 10 uM tc6987: −23.06
  YFP fluorescence quenching using TC-6987, 500 uM tc6987: −19.3
[2]; ligand Facinicline 10 uM
  YFP fluorescence quenching using Facinicline, 10 uM fac: 81.34

B2: CODA109: engineered receptor: S170T in SEQ ID NO: 33 (protein)
chain: MRCSPGGVWLALAASLLHVSLQGEFQRKLYKELVKNYNPLERPVANDSQPLTVYFSLSLLQIMDVDEKNQVLTTNIWLQMSWTDHYLQWNVSEYPGVKTVRFPDGQIWKPDILLYNSADERFDATFHTNVLVNSSGHCQYLPPGIFKSSCPMDLKNFPMDVQTCKLKFGTWSYGGWSLDLQMQEADISGYIPNGEWDLVGIPGKRSERFYECCKEPYPDVTFTVTMRRRMGYYLIQMYIPSLLIVILSWISFWINMDAAPARVGLGITTVLTMTTQSSGSRASLPKVSYVKAIDIWMAVCLLFVFSALLEYAAVNFVSRQHKELLRFRRKRRHHKSPMLNLFQEDEAGEGRFNFSAYGMGPACLQAKDGISVKGANNSNTTNPPPAPSKSPEEMRKLFIQRAKKIDKISRIGFPMAFLIFNMFYWIIYKIVRREDVHNQ
modifications: synthetic sequence of chimeric LGIC
[2]; 1 nM CNL001, first column so headed
  YFP fluorescence quenching using CNL001 (percent quench): 19.755%
[2]; 1 nM CNL001, second column so headed
  YFP fluorescence quenching using CNL001 (percent quench): 65.484%
[2]; [3]
  YFP fluorescence quenching using TC-5619/Bradanicline (percent quench): 70.58%
[2]; 10 nM CNL001, first column so headed
  YFP fluorescence quenching using CNL001 (percent quench): 79.024%
[2]; 10 nM CNL001, second column so headed
  YFP fluorescence quenching using CNL001 (percent quench): 81.563%
[2]; [4]
  YFP fluorescence quenching using TC-5619/Bradanicline (percent quench): 80.71%
[2]; 50 nM CNL001, first column so headed
  YFP fluorescence quenching using CNL001 (percent quench): 81.926%
[2]; 50 nM CNL001, second column so headed
  YFP fluorescence quenching using CNL001 (percent quench): 83.092%
[2]; 50 nM abt (ABT-126)
  YFP fluorescence quenching using ABT-126 (percent quench): 55.83%
[2]; 100 nM CNL001, first column so headed
  YFP fluorescence quenching using CNL001 (percent quench): 83%
[2]; 100 nM CNL001, second column so headed
  YFP fluorescence quenching using CNL001 (percent quench): 83.811%
[2]; 100 nM CNL002
  YFP fluorescence quenching (percent quench): 73.48%
[2]; 100 nM abt (ABT-126)
  YFP fluorescence quenching using ABT-126 (percent quench): 68.89%
[2]; 100 nM azd0328
  YFP fluorescence quenching using AZD-0328 (percent quench): 84.01%
[2]; 300 nM abt (ABT-126)
  YFP fluorescence quenching using ABT-126 (percent quench): 72.52%
[2]; 300 nM azd0328
  YFP fluorescence quenching using AZD-0328 (percent quench): 87.08%
[2]; [5]
  YFP fluorescence quenching using TC-5619/Bradanicline (percent quench): 80.66%
[2]; 1 uM CNL001, first column so headed
  YFP fluorescence quenching using CNL001 (percent quench): 81.834%
[2]; 1 uM CNL001, second column so headed
  YFP fluorescence quenching using CNL001 (percent quench): 83.858%
[2]; 1 uM CNL002
  YFP fluorescence quenching (percent quench): 70.03%
[2]; 1 uM abt (ABT-126)
  YFP fluorescence quenching using ABT-126 (percent quench): 70.96%
[2]; 10 uM ach (acetylcholine)
  YFP fluorescence quenching (percent quench): 82.91%
[2]; 30 uM ach (acetylcholine)
  YFP fluorescence quenching (percent quench): 82.53%
[2]; 30 uM azd0328
  YFP fluorescence quenching using AZD-0328 (percent quench): 87.27%
[2]; 50 uM ach (acetylcholine)
  YFP fluorescence quenching (percent quench): 82.11%
[2]; 100 uM ach (acetylcholine)
  YFP fluorescence quenching (percent quench): 83.68%
[2]; 1 mM ach (acetylcholine)
  YFP fluorescence quenching (percent quench): 69.89%
[2]; 3 mM ach (acetylcholine)
  YFP fluorescence quenching (percent quench): 78.12%
[2]
  YFP fluorescence quenching using Facinicline, 30 nM fac: 76.45
  YFP fluorescence quenching using Facinicline, 300 nM fac: 71.09
  YFP fluorescence quenching using Facinicline, 30 uM fac: 69.41
  YFP fluorescence quenching using TC-6987, 1 uM tc6987: 71.45
  YFP fluorescence quenching using TC-6987, 10 uM tc6987: 71.04
  YFP fluorescence quenching using TC-6987, 500 uM tc6987: 66.2
[2]; ligand Facinicline 100 nM
  YFP fluorescence quenching using Facinicline, 100 nM fac: 82.45
[2]; first column
  YFP fluorescence quenching using Varenicline, 3 nM var: −20.96
  YFP fluorescence quenching using Varenicline, 30 nM var: −16.094
  YFP fluorescence quenching using Varenicline, 300 nM var: 64.373
  YFP fluorescence quenching using Varenicline, 500 nM var: 71.892
  YFP fluorescence quenching using Varenicline, 1 uM var: 75.461
[2]; second column
  YFP fluorescence quenching using Varenicline, 3 nM var: −19.953
  YFP fluorescence quenching using Varenicline, 30 nM var: −21.502
  YFP fluorescence quenching using Varenicline, 300 nM var: 71.198
  YFP fluorescence quenching using Varenicline, 500 nM var: 73.53
  YFP fluorescence quenching using Varenicline, 1 uM var: 78.578
